The record followed here is PMC4678825.

In the assay the target is Qβ replicase core complex (β-subunit, EF-Tu and EF-Ts), wild type (E. coli | bacteriophage Qβ). The assay is described as follows: SEC-MALS. (In general: SEC sorts molecules by how far they enter the pores of the column.)

The stoichiometry N is a count of units in the complex or per binding partner.

Regarding “Qβ replicase core complex (β-subunit, EF-Tu and EF-Ts), wild type”, the stoichiometry N amounted to 2.
